Data taken from patent publication US20040009568.

Legend:
[1] = system: poly(Glu4Tyr)
[2] = biological target: dephosphorylated α-casein (UniProt P02662)
Sequence of dephosphorylated α-casein (P02662 16-214): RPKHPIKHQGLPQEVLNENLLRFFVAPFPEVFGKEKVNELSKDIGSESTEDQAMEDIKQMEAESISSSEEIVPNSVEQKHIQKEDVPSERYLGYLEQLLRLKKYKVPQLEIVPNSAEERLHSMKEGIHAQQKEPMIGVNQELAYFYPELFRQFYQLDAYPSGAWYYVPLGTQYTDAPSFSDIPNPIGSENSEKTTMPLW

Substance	autophosphorylation rate	Km (steady-state, coupled enzymatic assay, 37 C) [1] [mM]	kcat/Km (steady-state, coupled enzymatic assay, 37 C) [1] [s^-1M^-1]	Km, Dephosphorylated α-casein (coupled, enzymatic format) [2] [mM]
catalytic domain of the human hepatocyte growth factor receptor kinase (HGFRkd), unphosphorylated	The HGFR autophosphorylation rate is dependent on the concentration of HGFR.	10.1	48.1	–
phosphorylated HGFR (autophosphorylated catalytic domain of the human hepatocyte growth factor receptor kinase)	–	8.19	9260	0.0285 ± 0.0035
